According to patent US20220017620A1 (SHANGHAI FUDAN ZHANGJIANG BIO PHARMACEUTICAL, published 2022):

T1: B7-H3 antigen H4M (human 4Ig B7-H3 amino acids 27-461 with N-terminal 10 His tag and C-terminal Myc tag) (human, UniProt Q5ZPR3 27-461, Biotinylated in the phage ELISA (labeling amount approximately 2.5, sites not stated); not biotinylated in the scFv protein ELISA)
T1 construct: Expressed in Expi293; also called biotinylated B7-H3 antigen H4M; not shown: any linker between the tags and the B7-H3 part is not described
T1 sequence: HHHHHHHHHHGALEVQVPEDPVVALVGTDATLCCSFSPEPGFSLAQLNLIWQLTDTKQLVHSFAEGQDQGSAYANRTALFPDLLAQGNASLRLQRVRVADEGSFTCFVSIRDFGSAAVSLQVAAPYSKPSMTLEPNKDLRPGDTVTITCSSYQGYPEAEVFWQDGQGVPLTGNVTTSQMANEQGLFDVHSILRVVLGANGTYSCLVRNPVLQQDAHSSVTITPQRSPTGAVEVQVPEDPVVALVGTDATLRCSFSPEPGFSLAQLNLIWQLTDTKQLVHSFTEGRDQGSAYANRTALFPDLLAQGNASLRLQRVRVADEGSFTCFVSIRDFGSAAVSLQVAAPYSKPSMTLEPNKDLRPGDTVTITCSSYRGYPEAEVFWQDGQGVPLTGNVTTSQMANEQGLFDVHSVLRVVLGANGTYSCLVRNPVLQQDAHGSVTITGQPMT

T2: IgV domain of B7-H3 (human, UniProt Q5ZPR3 30-130)
T2 sequence: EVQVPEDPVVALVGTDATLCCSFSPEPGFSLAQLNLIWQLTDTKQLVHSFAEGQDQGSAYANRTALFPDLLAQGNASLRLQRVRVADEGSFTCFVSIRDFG

B1: P1D1 scFv (scFv)
scFv: QVQLVQSGAEVKKPGESLKISCKGSGYSFTSYWIGWVRQMPGKGLEWMGIIYPGDSDTRYSPSFQGQVTISADKSISTAYLQWSSLKASDTAMYYCARRSVAGLDYWGQGTLVTVSSGSASAPTLGQGGGGGSGGGGSGGGGSKTVVTQPPSASGTPGQRVTISCSGSSSNIGSKYVYWYQQLPGTAPRLLIYRNNQRPSGVPDRFSGSKSGTSASLAISGLRSEDESDYYCASWDDRLKGYAFGTGTKVTVL
B2: P3B9 scFv (scFv)
scFv: QIQLVQSGAEVKKPGESLKISCKGSGYSFTSYWIGWVRQMPGKGLEWMGIIYPGDSDTRYSPSFQGQVTISADKSISTAYLQWSSLKASDTAMYYCARRTPRGMDVWGQGTTVTVSSGSASAPTLGQGGGGGSGGGGSGGGGSQAVLTQPPSASGTPGQRVTISCSGSSSNIGSNYVYWYQQLPGTAPKLLIYRNNQRPSGVPDRFSGSKSGTSASLAISGLRSEDEADYYCAAWDDSLSGWVFGGGTKLTVL
B3: P2E3 scFv (scFv)
scFv: QVQLVQSGAEVKKPGESLKISCKGSGYSFTSYWIGWVRQMPGKGLEWMGIIYPGDSDTRYSPSFQGQVTISADKSISTAYLQWSSLKASDTAMYYCARRSREGFDPWGQGTLVTVSSGSASAPTLGQGGGGGSGGGGSGGGGSQAVLTQPSSASGTPGQRVTMSCSGAASNIGKNFVYWYQQLPGRAPRLLISRNIQRPSEVPDRFSGSKSGTSASLAISGLQSEDEADYYCAAWDDSLNGFVFGTGTAVTVL
B4: P2E5 scFv (scFv)
scFv: QVTLKESGGGLVQPGGSLRLSCAASGFTFSNSYMTWVRQAPGMGLEWVASMKPDGSVKHYVDSVKGRFTISRDNTKNSLDLQMNSLRAEDTAVYYCSSYDTRWGWFDPWGEGTLVTVSSGSASAPTLGQGGGGGSGGGGSGGGGSQTVVTQEPSFSVSPGGTVTLTCGLNSGSVSTSYFPSWYQQTPGQAPRTLIYNTNTRSSGVPDRFSGSILGNKAALTITGAQADDESDYYCLLYMDSGPHWVFGGGTKLTVL
B5: P7F10 full-length IgG1 antibody (antibody, V domains shown)
VH: QVQLQQSGGGLVQPGGSLRLSCAASGFTFSSYPMSWVRQAPGKGLEWVSVISGSGGSTFYADSVKGRFTISRDNSKNTLYLQVNSLRAEDTAVYYCAKDGRTLSGMDVWGQGTTVTVSS
VL: QPVLTQPPSASGTPGQRVTISCSGSSSNIGSNPVNWYQQLPGTAPKLLIYNNNQRPSGVPDRFSGSKSGTSGSLAISGLQSEDEAHYYCAAWDVSLKEVFGGGTKVTVL
B6: P1G2 scFv (scFv)
scFv: QVQLQQSGAEVKKPGSSVKVSCKASGGTFSSYAISWVRQAPGQGLEWMGRIIPILGIANYAQKFQGRVTITADKSTSTAYMELSSLRSEDTAVYYCAVNYYDSSGYYSDYWGQGTLVTVSSGSASAPTLGQGGGGGSGGGGSGGGGSSYELTQPPSASGSPGQSVTISCTGTSSDVGGYNYVSWYQQHPGKAPRLMIYGVSQRPSGVPDRFSGSKSGNTASLTVSGLQAEDEADYYCSSYANNNYVFGTGTKVTVL
B7: P9A12 full-length IgG1 antibody (antibody, V domains shown)
VH: QVTLKESGGGLVQPGGSLRLSCAASGFTFSSYAMSWVRQAPGKGLEWVSAISGSGGSTYYADSVKGRFTISRDNSKNTLYLQMNSLRAEDTAVYYCARGAGIDAFDIWGQGTMVTVSS
VL: QSALTQPASVSGSPGQSITISCTGTSSDVGAYNYVTWYQQYPGKAPKLMIYDVSERPSGVSNRFSGSKSGNTASLTISGLQAEDEADYYCSSFTSSISWVFGGGTKLTVL

Legend:
[1] = biological target: T1, B7-H3 antigen H4M (human 4Ig B7-H3 …); assay: scFv protein ELISA on coated H4M
Experimental: ELISA screening of scFv protein: B7-H3 antigen H4M was taken and dissolved at room temperature, then diluted with coating buffer to 2 ng/ml, and aliquoted into a hydrophobic enzyme-labeled plate at 100 μL/well, while 100 μL coating buffer only were pipetted into another 3 wells as a blank control, incubated overnight at 2-8° C. 100 μL of scfv protein sample was pipetted into each well, then the plate was placed into the microplate shaker, incubating for 1 hour at 37° C. and 600 rpm. After discarding the liquid, the plate was washed for 3 times with washing buffer. Then diluted enzyme-linked antibody was aliquoted into each well at 100 μL/well, placed into the microplate shaker, incubating at 37° C., 600 rpm for 1 hour. After discarding the liquid, the plate was washed for 3 times. Then TMB chromogenic solution was aliquoted in at 100 μL/well and incubated for 15 minutes, then 1 mol/L H₂SO₄ stop solution was aliquoted at 100 μL/well to stop the reaction. A microplate reader was used to measure the absorbance at 450 nm with a wavelength of 650 nm as the reference wavelength.

[2] = biological target: T1, B7-H3 antigen H4M (human 4Ig B7-H3 …); assay: phage ELISA, scFv displayed on phage, biotinylated H4M captured on streptavidin
Experimental: Phage ELISA screening: streptavidin with a concentration of 1 mg/ml was taken and dissolved at room temperature, after being mixed, it was diluted gradually with coating buffer to 5 μg/ml. 100 μL/well of which was then pipetted into each well in a 96-well plate, and 100 μL coating buffer only were pipetted into another 3 wells as a blank control, incubated overnight at 2-8° C. The biotinylated B7-H3 antigen H4M was taken and diluted with 0.5% BSA-PBST diluent to […], then 100 μL of which at a concentration of 20 ng/ml was pipetted into the streptavidin-coated wells, and placed into a microplate shaker. After shaking at 37° C. and 600 rpm for 1 hour, the liquid was discarded, the plate was washed for 3 times with washing buffer and pat dry. The positive phage obtained in the second or third round of panning was taken and dissolved at room temperature, after being mixed, it was diluted 500 times with the diluent. The diluted phage was aliquoted into the microtiter plate at an amount of 100 μL/well, and placed in a microplate shaker, incubating at 37° C. and 600 rpm for 1 hour. After discarding the liquid, the plate was washed for 3 times with washing buffer. Then 100 μL of diluted HRP/Anti-M137 enzyme-linked antibody was aliquoted into each well, placed into the microplate shaker, incubating at 37° C., 600 rpm for 1 hour. After discarding the liquid, the plate was washed for 3 times. Then TMB chromogenic solution was aliquoted in at 100 μL/well and incubated for color development for 15 minutes, then 1 mol/L H₂SO₄ stop solution was aliquoted at 100 μl/well to stop the reaction. A microplate reader was used to measure the absorbance at 450 nm with a wavelength of 650 nm as the reference wavelength.

[3] = biological target: T2, IgV domain of B7-H3; assay: ELISA on coated antigen, IgG1 antibody
Experimental: Protein binding: 100 μL of antigen B7-H3 (R&D) at 20 ng/ml was coated onto microplate, incubated at 2-8° C. overnight. Subsequently, 100 μL of the prepared full-length IgG1 antibody described above was added with a total of 8 concentrations started from 2000 ng/ml and serially diluted with 3-fold, incubating at 37° C., 600 rpm for 1 hour. After the plate was washed for three times, Goat anti human IgG (Fc)-HRP enzyme-linked antibody was added and the plate was shook at 37° C. and 600 rpm for 1 hour. After the plate was washed for 4 times, TMB chromogenic solution was aliquoted in and incubated for 10 minutes, then 1 mol/L […] stop solution at 100 μL/well was aliquoted to stop the reaction and the absorbance was measured.

Row | Binder | ELISA signal value of protein scFv [1] | ELISA signal value of Phage scFv [2] | ELISA signal value [3]
1 | B1 | 2.97 absorbance 450 nm | 3.65 absorbance 450 nm | –
2 | B2 | 3.39 absorbance 450 nm | 3.09 absorbance 450 nm | –
3 | B3 | 3.58 absorbance 450 nm | 3.54 absorbance 450 nm | –
4 | B4 | 0.84 absorbance 450 nm | 0.74 absorbance 450 nm | –
5 | B5 | – | – | 0.6 to 1.5 elisasignalvalue
6 | B6 | 0.54 absorbance 450 nm | 3.55 absorbance 450 nm | –
7 | B7 | – | – | 0.3 to 0.5 elisasignalvalue
